How the values were obtained:
[1] = target: 人CLDN18.2(hCLDN18.2) (human) (UniProt P56856); test: cell ELISA on fixed hCLDN18.2+cell
[2] = target: 人CLDN18.2(hCLDN18.2) (human) (UniProt P56856); test: cell ELISA on fixed hCLDN18.2+cell, plateau reading
[3] = target: 人CLDN18.2(hCLDN18.2) (human) (UniProt P56856); test: cell ELISA, hybridoma supernatant on hCLDN18.2+cell

Binder | EC50 [1] [nM] | Emax higher than Ref [1] [%] | fold better binding (EC50) than Ref [1] [fold] | Emax [2] | ELISA读值 [3]
anti-hCLDN18.2鼠源抗体mab5b (antibody, human IgG1, kappa, V domains shown) VH: QVQLQQSGAELIGPGTSVKVSCKASGYAFSNYLIEWVKQRPEQGLEWIGLINPGSGGTNYNEKFKGKATLTADKSSSTAYMQLSSLTSDDSAVYFCARVYYGNSFAYWGQGTLVTVSA VL: DIVMTQSPSSLTVTAGEKVTMSCKSSQSLLNSGNQKNYLTWYQQKPGQPPKLLIYWASTRESGVPDRFTGSGSGTHFTLTISSVQAEDLAVYYCQNDYFYPFTFGSGTKLEKKR | 0.115 | > 36 | > 1 | 1.92 | –
杂交瘤单克隆细胞株C13C1F1D3G6所分泌的抗体 (antibody, V domains shown) VH: QVQLQQSGAELIGPGTSVKVSCKASGYAFSNYLIEWVKQRPEQGLEWIGLINPGSGGTNYNEKFKGKATLTADKSSSTAYMQLSSLTSDDSAVYFCARVYYGNSFAYWGQGTLVTVSA VL: DIVMTQSPSSLTVTAGEKVTMSCKSSQSLLNSGNQKNYLTWYQQKPGQPPKLLIYWASTRESGVPDRFTGSGSGTHFTLTISSVQAEDLAVYYCQNDYFYPFTFGSGTKLEKK | – | – | – | – | 0.889

Source: patent CN111110862A
